Laboratory results reported in patent US20250163117A1 (CURE GENETICS, published 2025).

Legend:
[1] = target: T1, Human IL-2RG (common γ receptor/CD132) protein (human, UniProt P31785 23-262, limits assumed); assay: SPR (Biacore, receptor immobilised on CM5 chip, IL-2 as analyte)
T1 construct: Receptor protein used as SPR ligand
T1 sequence (looked up): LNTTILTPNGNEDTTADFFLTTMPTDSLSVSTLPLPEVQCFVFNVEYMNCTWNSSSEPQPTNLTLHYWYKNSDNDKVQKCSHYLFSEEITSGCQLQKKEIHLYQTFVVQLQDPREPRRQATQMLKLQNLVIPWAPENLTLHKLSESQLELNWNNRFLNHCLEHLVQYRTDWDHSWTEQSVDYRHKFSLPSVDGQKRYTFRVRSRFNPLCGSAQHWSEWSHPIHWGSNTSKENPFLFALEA
Experimental: (§1) The human IL-2 receptors used in this study included IL-2Rα/CD25, IL-2Rβ/CD122, common γ receptor/CD132, IL-2Rβ&IL-2Rγ heterodimer protein, and IL-2Rβ&IL-2Rα&IL-2Rγ protein. The IL-2 receptor proteins were immobilized on a Biacore™ sensor chip CM5 according to manufacturer's protocol. […] The resulting sensorgrams were analyzed with the native instrument software to calculate the binding affinities.

[2] = target: T2, Human IL-2RA (IL-2Rα/CD25) protein (human, UniProt P01589 22-217, limits assumed); assay: as above
T2 construct: Receptor protein used as SPR ligand
T2 sequence (looked up): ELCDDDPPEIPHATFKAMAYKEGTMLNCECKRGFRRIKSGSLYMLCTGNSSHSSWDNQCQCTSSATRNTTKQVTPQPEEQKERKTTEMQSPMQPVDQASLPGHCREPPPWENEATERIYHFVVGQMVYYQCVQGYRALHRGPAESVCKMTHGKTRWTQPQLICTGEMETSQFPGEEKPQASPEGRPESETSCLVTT
Experimental: as §1

[3] = target: T3, Human IL-2RB (IL-2Rβ/CD122) protein (human, UniProt P14784 27-239); assay: as above
T3 construct: Receptor protein used as SPR ligand
T3 sequence (looked up): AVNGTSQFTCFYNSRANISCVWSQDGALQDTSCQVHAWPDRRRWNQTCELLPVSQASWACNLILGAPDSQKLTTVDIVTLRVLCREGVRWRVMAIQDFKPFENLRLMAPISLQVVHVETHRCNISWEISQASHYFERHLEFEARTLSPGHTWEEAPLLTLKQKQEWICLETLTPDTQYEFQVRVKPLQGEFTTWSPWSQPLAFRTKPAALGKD
Experimental: as §1

[4] = target: T4, human intermediate-affinity IL-2 receptor IL-2Rβγ on cells (human, UniProt P14784 27-551; P31785 23-369); assay: cell-based or functional assay
T4 sequence (looked up) 1: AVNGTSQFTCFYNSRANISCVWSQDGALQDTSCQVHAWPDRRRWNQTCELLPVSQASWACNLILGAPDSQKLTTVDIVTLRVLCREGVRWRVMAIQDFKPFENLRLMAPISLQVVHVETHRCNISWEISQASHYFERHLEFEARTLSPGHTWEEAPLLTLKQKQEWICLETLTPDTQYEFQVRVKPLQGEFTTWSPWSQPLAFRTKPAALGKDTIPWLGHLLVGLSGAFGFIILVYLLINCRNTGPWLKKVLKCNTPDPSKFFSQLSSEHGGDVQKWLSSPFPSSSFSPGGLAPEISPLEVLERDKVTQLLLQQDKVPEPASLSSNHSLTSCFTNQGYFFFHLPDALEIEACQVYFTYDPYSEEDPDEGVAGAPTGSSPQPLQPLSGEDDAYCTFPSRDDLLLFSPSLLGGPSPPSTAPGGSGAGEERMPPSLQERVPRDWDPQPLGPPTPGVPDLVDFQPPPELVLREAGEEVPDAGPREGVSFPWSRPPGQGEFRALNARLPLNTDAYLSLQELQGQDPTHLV
T4 sequence (looked up) 2: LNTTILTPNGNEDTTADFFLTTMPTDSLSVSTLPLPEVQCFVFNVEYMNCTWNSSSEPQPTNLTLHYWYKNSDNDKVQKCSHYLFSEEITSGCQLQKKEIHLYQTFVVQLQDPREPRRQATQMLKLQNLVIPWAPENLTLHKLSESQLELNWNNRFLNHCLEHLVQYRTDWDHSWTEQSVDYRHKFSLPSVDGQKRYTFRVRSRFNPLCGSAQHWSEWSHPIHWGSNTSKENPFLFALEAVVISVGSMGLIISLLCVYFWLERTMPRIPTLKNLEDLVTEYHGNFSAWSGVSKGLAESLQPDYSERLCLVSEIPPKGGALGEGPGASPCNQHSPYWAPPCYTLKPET

[5] = target: T5, human high-affinity IL-2 receptor IL-2Rαβγ on cells (human, UniProt P01589 22-272; P14784 27-551; P31785 23-369); assay: cell-based or functional assay
T5 sequence (looked up) 1: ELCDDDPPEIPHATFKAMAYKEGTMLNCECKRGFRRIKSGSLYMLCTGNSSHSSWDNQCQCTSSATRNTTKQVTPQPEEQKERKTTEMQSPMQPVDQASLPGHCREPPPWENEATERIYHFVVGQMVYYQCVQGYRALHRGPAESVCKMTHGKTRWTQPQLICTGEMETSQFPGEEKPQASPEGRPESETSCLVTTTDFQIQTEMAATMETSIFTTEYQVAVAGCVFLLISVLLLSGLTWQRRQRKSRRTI
T5 sequence (looked up) 2: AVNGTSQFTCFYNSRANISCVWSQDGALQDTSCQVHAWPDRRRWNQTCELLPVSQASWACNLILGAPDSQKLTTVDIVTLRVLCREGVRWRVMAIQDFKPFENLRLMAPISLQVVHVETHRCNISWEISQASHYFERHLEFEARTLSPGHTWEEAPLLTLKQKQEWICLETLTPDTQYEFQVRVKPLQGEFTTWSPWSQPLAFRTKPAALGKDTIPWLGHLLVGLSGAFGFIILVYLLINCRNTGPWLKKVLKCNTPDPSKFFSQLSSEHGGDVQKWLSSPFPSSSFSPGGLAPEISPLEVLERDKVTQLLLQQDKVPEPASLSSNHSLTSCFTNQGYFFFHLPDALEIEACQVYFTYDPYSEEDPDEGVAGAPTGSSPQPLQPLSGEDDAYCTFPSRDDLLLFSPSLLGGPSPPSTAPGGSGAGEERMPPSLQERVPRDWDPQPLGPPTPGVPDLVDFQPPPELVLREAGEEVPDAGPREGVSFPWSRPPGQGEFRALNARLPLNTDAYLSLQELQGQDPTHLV
T5 sequence (looked up) 3: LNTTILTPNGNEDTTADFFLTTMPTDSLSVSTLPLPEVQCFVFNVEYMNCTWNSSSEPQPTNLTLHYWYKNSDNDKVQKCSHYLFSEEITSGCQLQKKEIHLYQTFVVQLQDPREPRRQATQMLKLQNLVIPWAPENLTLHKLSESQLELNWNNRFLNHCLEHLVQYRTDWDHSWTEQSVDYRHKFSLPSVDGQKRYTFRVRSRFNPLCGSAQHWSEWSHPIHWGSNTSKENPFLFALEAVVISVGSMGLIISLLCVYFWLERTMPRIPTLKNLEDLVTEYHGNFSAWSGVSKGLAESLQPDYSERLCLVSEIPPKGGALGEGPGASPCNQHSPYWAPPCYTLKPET

- binding result [1]: no binding (tested: 0.977-500 nM)
- binding result [2]: no binding (tested: 0.977-250 nM)
- binding result [3]: no binding (tested: 7.813-250 nM)
- % pSTAT5 in human PBMC at High IL-2v concentration (25 nM per paragraph 254); western blot, pSTAT5/STAT5 normalised to 001 High [4]: 66.9%
- % pSTAT5 in human PBMC at Low IL-2v concentration (2.5 nM per paragraph 254); western blot, pSTAT5/STAT5 normalised to 001 High [5]: 10.9%
B1: CP-trIL-2 012 (ligand)
chain: PTSSSTKKTQLQLEHLLLDLQMILNGINNYKNPLRPRDLISNINVIVLELKGSETTELKHLQSLEEELKDLEEVLNLAQSKNFHTIVEFLNRWITFSQSIISTLT
notes: H1-H3-H2-H4; loops 1 and 2 removed; de-Ala1, C58S, C125S, P65D
